Measured values: the supplement of paper PMC9170038

Tested on: MS2 coat protein
Assay: apparent KD of MS2 coat protein; designed switch direction (-1 OFF switch, 1 ON switch): -1; higher = weaker reporter binding
How it was run: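 RNA switches sharing common flanks were transcribed by stalled E. coli RNA polymerase on Illumina chips. A doubling series of SNAP-549-labelled MS2 coat protein, from 0.7 or 1.5 nM to 3 µM, was applied in Tris-HCl pH 7.5 buffer with KCl, MgCl2, BSA, DTT, tRNA and Tween-20. Each step lasted 0.8–1.5 h at the bottom of the series and 10–20 min at the top. Normalised cluster fluorescence was curve-fitted, giving apparent KD as the per-design median over clusters.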

[1] = Eterna round: R95, input ligand: FMN 200 uM
[2] = Eterna round: R95, input ligand: microRNA oligo, concentration not stated
[3] = Eterna round: R95, input ligand: none

Sequence | apparent KD of MS2 coat protein (input ligand: FMN 200 uM) [nM] | apparent KD of MS2 coat protein (input ligand: none) [nM] | apparent KD of MS2 coat protein [2] [nM] | also measured
ACUUAUGCGGAGGAUAUUUAACGUAGCGAAAGUAAAGAAGGCCGAACAUGAGGAUCACCCAUGUGGAGGUGUAA [Eternabot (L1) Solution 24] (Eterna round: R97, puzzle: Exclusion 6) | 92.5 | 23 | – | –
AGUGUGUGGCAGGAUAUUCUAAUCUUUAGGAGGGAAGAAGGGUCUACAUGAGGAUCACCCAUGUAAGCGGUUGA [Ex6 #40] (Eterna round: R97, puzzle: Exclusion 6) | 221 | 75.3 | – | –
AAUAACAAGCCGAUCCUAAACAUGAGGAUCACCCAUGUGCUCGUCUUGUAAAGUACUAUCACGAAAGUGAUAGUACA (Eterna round: R96, puzzle: Sensor v3, turn-off variant 1) | 18.1 | 19.3 | – | apparent KD of MS2 coat protein (input ligand: microRNA oligo, concentration not stated): 220 nM
CUGAAUCGAGGAUAUUGUACUGCUGACAUGAGGAUCACCCAUGUAUGUUAACUCAGCCGUCGAGAAGGCGAACAUA [BotMod 33 - Jieux - Exclusion 5] (Eterna round: R97, puzzle: Exclusion 5) | 12.8 | 19 | – | –
AGUAACCGUCACGAAAGUGAUGGUUACGCAAGUAAAUGUACAUGAGGAUCACCCAUGUCCUCAUUUGCUCGUCUUAU [Sensor 3 - 44] (puzzle: Sensor v3, turn-off variant 2) | – | – | 330 | apparent KD of MS2 coat protein [1]: 188 nM
UAUUAACAAGCAAGAUCCUACAUGAGGAUCACCCAUGUGCUCGUCUUAUAAGGUACUGUGACGAAAGUCACGGUACC [Sensor 3, v1 - 70] (puzzle: Sensor v3, turn-off variant 1) | – | – | 42.9 | apparent KD of MS2 coat protein [1]: 294 nM; apparent KD of MS2 coat protein [3]: 251 nM
UGUGUACAUGAGGAUCACCCAUGUCAGGAUAUCUAGGCUCUCUCACUGACAACAGCCAAGAGAAGGGACGAGGU [EX1 B.7] (Eterna round: R97, puzzle: Exclusion 1) | 36.3 | 29.5 | – | –
CAAAUCUGAGGAUAUCGAUAUUUGUACAUGAGGAUCACCCAUGUCCUAUUUAUUAUAUUUCGAGAAGGCAGUGUAU [JR_E5_Sub094] (puzzle: Exclusion 5) | – | – | 19.2 | –
GCGAUUUCCGAGGAUAUCCUGCACACUAUCUAAGGAGAAGGCGGAACUUGAGGAUCACCCAAGUGCAUCCGAAU [Isusbe] (Eterna round: R97, puzzle: Exclusion 6) | 135 | 39.5 | – | –
GUGGAACAUGAGGAUCACCCAUGUGAGGAUAUGUGAGAAGGAUUUGAGAGGGAGAGGGACAGAAGGCACUAGGA [JR_Exclu1_Sub084] (puzzle: Exclusion 1) | – | – | 33.6 | apparent KD of MS2 coat protein [1]: 32.7 nM; apparent KD of MS2 coat protein [3]: 41.9 nM
GCCGAAAAUGUGAGGAUAUACCUAUGGAAACAUAGGUAGAAGGCACAUGAGGAUCACCCAUGUUCCUCAUCGGC [Mat - Exclusion 4 - Eli Mod - D17] (Eterna round: R97, puzzle: Brourd's mod of Exclusion 4) | 729 | 120 | – | –
GUGCGGUGAGGAUAUACGUAGGUGAAAAUCUGUGUGUUCCUACAUGAGGAUCACCCAUGUAGAAGGCAUGUCAC [LRO-Excl2-14] (puzzle: Exclusion 2) | – | – | 47.6 | –
GCAGAUGUAGUGAGGAUAUGCUCUACCUCGGUAGAGCAGAAGGCACAUGAGGAUCACCCAUGUGAUUCAUCUGC [Omei Ex4B B7] (Eterna round: R97, puzzle: Brourd's mod of Exclusion 4) | 211 | 28.6 | – | –
CAUUUCAGUCGGAGAUCCAACAUGAGGAUCACCCAUGUCUCUAAAGCUUUUUGCUCGUCUUAUCCUCCUUUGUUCAC [JR_STOV1_Sub098] (Eterna round: R97, puzzle: Sensor, turn-off variant 1) | 458 | 299 | – | –
